Holding throughout (assay): SPR
In general terms: Surface plasmon resonance follows binding to a sensor surface in real time, without labels.

For assay [1], the target named is ADI-56046 (human).
For assay [2], the target named is P2B-2F6 (human).
Assay [3] has as its target B38 (human).
The target in assay [4] is C105 (human).
In assay [5] the target is CB6 (human).
Assay [6] has as its target P17 (human).

Four substances from publication PMC9197780 can be followed below.

As a reminder, the Kd is the constant that tells how readily two partners part at equilibrium. A high value points to lower affinity.

Bounds are passed on as bounds.

Take “SARS-CoV-2 Omicron BA.1 RBD protein with His-tag, spike residues 319-541 (from UniProt P0DTC2 319-541) (domain or fragment)”: the Kd in assay [1] was found to be 2.3 µM. In other words, the single-digit micromolar range.

Take “SARS-CoV-2 Omicron BA.1.1 RBD protein with His-tag, spike residues 319-541 (from UniProt P0DTC2 319-541) (domain or fragment)”: the Kd in assay [1] was 1.5 µM.

Take “SARS-CoV-2 Omicron BA.2 RBD protein with His-tag, spike residues 319-541 (from UniProt P0DTC2 319-541) (domain or fragment)”: the Kd in assay [2] was found to be 5.1 µM. In other words, the single-digit micromolar range.

As to “SARS-CoV-2 Omicron BA.3 RBD protein with His-tag, spike residues 319-541 (from UniProt P0DTC2 319-541) (domain or fragment)”, the dissociation constant Kd in assay [1] is 18 µM; in assay [3], above 0.5 µM; in assay [4], above 0.5 µM; in assay [5] it was above 0.5 µM; in assay [6], 3.5 µM.
